Measurements: paper doi:10.1101/2020.07.11.198572

Key:
[1] = molecular target: EGFR-GFP (GFP-labelled epidermal growth factor receptor) in SW620-EGFR-GFP cells (human) (UniProt P00533)
[2] = molecular target: EGFR-GFP (GFP-labelled epidermal growth factor receptor) in SW620-EGFR-GFP cells (human) (UniProt P00533); remark: listed apart in the source

percent of EGFR foci colocalized with EGF (3-60 min) [1]: 40%
percent of all tracked EGFR molecules in foci colocalized with EGF [1]: 64%
mean relative stoichiometry EGFR:EGF [2]: 4.2 EGFR:EGF
stoichiometry N [2]: 1.9 EGFR:EGF
Substance: EGF-TMR (epidermal growth factor conjugated to tetramethylrhodamine) (ligand)
